Reference: publication PMC4641155 (Molecular Imaging and Biology, 2015)
Several values for one entry are separate records, joined by “and”; a condition that tells them apart may be missing. Equal values may be shown once.

Key:
[1] = Human residence time estimates scaled from mouse μSPECT time-activity curves; format: in vivo, human (extrapolated from mouse); conditions: scaled from mouse μSPECT TACs, n = 3 non-purified, n = 6 purified
Source text: (§1) Volumes of interest (VOIs) were manually drawn on the μSPECT-CT images using PMOD v3.3 (PMOD Technologies, Switzerland) to delineate the regions with distinct SPECT time-activity pattern: heart, liver, kidney, and urinary bladder, as well as whole-body. The average organ activity per volume was obtained from the co-registered μSPECT images and the non-decay corrected time activity curves (TACs) were extracted for each target organ. In order to relate the scanner units (counts/pixel) to radioactivity concentration (kilobecquerel per cubic centimeter), a scanner calibration factor was estimated by scanning a syringe with a known concentration of Tc-99m. TACs for each organ, as well as the TACs representing the activity in the remainder of the body, were fitted by a single exponential decaying function, which was then integrated to obtain the total number of disintegrations (residence time) within these regions. In order to predict human dosimetry using animal data, interspecies extrapolation is necessary. Thus, the residence times (R) were scaled to human values according to the following formula [21]: R/gorganmouse⋅kgTBweightmouse⋅gorgan/kgTBweighthuman=Rhuman
(§2) The human organ and body weight values from the standard adult male phantom taken into account are implemented in the internal dosimetry software (OLINDA/EXM v1.1) and are assumed to be constant across individuals. The body weight and organ masses for the individual mice were obtained post-mortem. For the bladder model, the fraction leaving the body via the urinary excretion system (f) and the biological half-life of the excretion (t1/2) were estimated by fitting a first-order linear system to the sum of activity in the bladder and the activity that had been excreted (calculated as total injected activity minus total body activity): y=f1−expln2/t1/2t

[2] = Projected human organ absorbed doses and effective dose (OLINDA/EXM); format: in vivo, human (extrapolated from mouse); conditions: OLINDA/EXM v1.1, adult male model, 2-h voiding, from mouse data
Source text: as §1, §2
Projected human absorbed doses to various organs and the effective doses (ED) were then computed using the aforementioned dosimetry software (weighting factors from International Commission on Radiological Protection 60), with the human residence times as input, using the standard adult male model and the dynamic voiding bladder model (2-h voiding interval).

[3] = Bladder model fit of urinary excretion; format: in vivo, CD1−/− nude female mice; conditions: first-order fit of bladder plus excreted activity
Source text: as §2

COLO205 tumors [4] = assay: In vivo tumor uptake by μSPECT-CT in COLO205 tumor-bearing mice; set-up: species or system nude mice; conditions: for mean tumor uptake: μSPECT 4 h p.i., 37 MBq i.v., mean ± SEM, n = 6 tumors
Description: (§3) Irinotecan was administered by intra-peritoneal (i.p.) injection (80 mg/kg) three times in 1 week every other day (n = 3).

COLO205 tumors [5] = assay: Ex vivo tumor uptake by γ-counting in COLO205 tumor-bearing mice; set-up: species or system nude mice; conditions: mean ± SEM
Description: as §3

[6] = In vivo plasma metabolite analysis by radio-HPLC; set-up: species or system CD1−/− nude mice; conditions: mouse plasma 4 and 24 h p.i., 37 MBq purified tracer i.v., acetonitrile deproteination, radio-RP-HPLC with γ-counted fractions; n = 3 per time point
Description: In vivo metabolite analysis
Four and 24 h p.i. (n=3 for each […]
time point) mixed blood was drawn by cardiac puncture, and the mice were euthanized by cervical dislocation. The blood was collected in EDTA-coated tubes and the plasma fraction was obtained by centrifugation (4000 g for 7 min). The plasma (200 µl) was mixed with an equal amount of cold acetonitrile to enable sample deproteination and counted for radioactivity using an automatic γ-counter. After vortexing and centrifuging for 4 min at 4000 g, the supernatant was separated from the pellet and both fractions were γ-counted to calculate the amount of radioactivity extracted in acetonitrile. To study radiometabolite formation, 100 µl of the supernatant were analyzed by RP-HPLC using the method described before. Eluate fractions of 0.5 min were collected and counted for radioactivity in the γ-counter.
Adult normal CD1-/- nude mice were used to examine the metabolic stability of […]
According to the radio-HPLC analysis of the plasma samples, the majority of the injected radiotracer remains unchanged after 4 and 24 h p.i. (Figs. 1b and c, respectively).
One minor polar impurity was detected eluting at 3 min. As it was also visible in the reference […]
Radiometabolites eluting with a longer retention time (18.5 – 30 min) could also be detected.

SMILES: CC(C)[C@@H]1NC(=O)[C@H](Cc2ccccc2)NC(=O)[C@@H]2NC(=O)[C@H](Cc3ccccc3)NC(=O)[C@@H]3CCCN3C(=O)CNC(=O)[C@H](Cc3ccccc3)NC(=O)[C@@H]3CNCCCC[C@@H](C(=O)O)NC(=O)[C@@H]4NC(=O)[C@H](CC(N)=O)NC(=O)CNC(=O)[C@H]([C@@H](O)C(=O)O)NC(=O)[C@H](CSC[C@@H](NC(=O)[C@H](CCC(N)=O)NC(=O)[C@H](CCCCNC(=O)c5ccc(NN)nc5)NC(=O)[C@@H](N)CS[C@H]4C)C(=O)N[C@@H](CS[C@H]2C)C(=O)N3)NC1=O [purified [^99mTc]duramycin] [metal not drawn]
- Mean human residence time, heart contents [1]: 0.027 h
- Mean human residence time, kidneys [1]: 0.0549 h
- Mean human residence time, liver [1]: 0.075 h
- Mean human residence time, remaining body [1]: 2.54 h
- Mean human residence time, urinary bladder contents [1]: 6.43 × 10 ^−1 h
- Mean human absorbed dose, total body [2]: 1.62 × 10^−3 mGy/MBq
- Mean human organ absorbed dose, LLI wall [2]: 2.97 × 10^−3 mGy/MBq
- Mean human organ absorbed dose, ULI wall [2]: 2.03 × 10^−3 mGy/MBq
- Mean human organ absorbed dose, adrenals [2]: 1.74 × 10^−3 mGy/MBq
- Mean human organ absorbed dose, brain [2]: 1.14 × 10^−3 mGy/MBq
- Mean human organ absorbed dose, breasts [2]: 9.59 × 10^−4 mGy/MBq
- Mean human organ absorbed dose, gallbladder wall [2]: 1.84 × 10^−3 mGy/MBq
- Mean human organ absorbed dose, heart wall [2]: 1.91 × 10^−3 mGy/MBq
- Mean human organ absorbed dose, kidneys [2]: 3.63 × 10^−3 mGy/MBq
- Mean human organ absorbed dose, liver [2]: 1.64 × 10^−3 mGy/MBq
- Mean human organ absorbed dose, lungs [2]: 1.36 × 10^−3 mGy/MBq
- Mean human organ absorbed dose, muscle [2]: 1.55 × 10^−3 mGy/MBq
- Mean human organ absorbed dose, osteogenic cells [2]: 3.92 × 10^−3 mGy/MBq
- Mean human organ absorbed dose, ovaries [2]: 2.96 × 10^−3 mGy/MBq
- Mean human organ absorbed dose, pancreas [2]: 1.82 × 10^−3 mGy/MBq
- Mean human organ absorbed dose, red marrow [2]: 1.48 × 10^−3 mGy/MBq
- Mean human organ absorbed dose, skin [2]: 9.56 × 10^−4 mGy/MBq
- Mean human organ absorbed dose, small intestine [2]: 2.22 × 10^−3 mGy/MBq
- Mean human organ absorbed dose, spleen [2]: 1.59 × 10^−3 mGy/MBq
- Mean human organ absorbed dose, stomach wall [2]: 1.59 × 10^−3 mGy/MBq
- Mean human organ absorbed dose, testes [2]: 2.07 × 10^−3 mGy/MBq
- Mean human organ absorbed dose, thymus [2]: 1.39 × 10^−3 mGy/MBq
- Mean human organ absorbed dose, thyroid [2]: 1.38 × 10^−3 mGy/MBq
- Mean human organ absorbed dose, urinary bladder wall [2]: 2.70 × 10^−2 ± 3.05 × 10^−3 mGy/MBq and 2.70 × 10 ^−2 mGy/MBq
- Mean human organ absorbed dose, uterus [2]: 4.57 × 10^−3 ± 3.42 × 10^−4 mGy/MBq and 4.57 × 10 ^−3 mGy/MBq
- f, mean fraction leaving the body via the urinary excretion system [3]: 0.697
- t 1/2, mean biological half-life of the excretion [3]: 2.151 h
- tumor-to-blood uptake ratio, irinotecan-treated over vehicle-treated mice (COLO205 tumors [4]; 4 h p.i.): 6 fold
- tumor-to-muscle uptake ratio, irinotecan-treated over vehicle-treated mice (COLO205 tumors [4]; 4 h p.i.): 2 fold
- mean tumor uptake (COLO205 tumors [4]; irinotecan-treated group, 24 h after last dose): 148.50 ± 25.42 %I.D./g/kg
- mean tumor uptake (COLO205 tumors [4]; vehicle-treated group): 40.58 ± 2.81 %I.D./g/kg
- tumor uptake by γ-counting (COLO205 tumors [5]; control (vehicle) tumors): 0.74 ± 0.04 %I.D./g
- tumor uptake by γ-counting (COLO205 tumors [5]; irinotecan-treated tumors): 1.65 ± 0.13 %I.D./g
- in vivo plasma (metabolic) stability [6]: unchanged
